Measured values as given in publication PMC3507442.

Target: vimentin (Rat2) (UniProt P31000)
Assay: co-immunoprecipitation with Flag-Beclin 1
Details: reference: wild-type Flag-Beclin 1; sites S234,S295

Beclin 1 (from UniProt Q14457) S234A/S295A (AA)
binding against the reference: weaker
